Laboratory results from patent US20140072558A1 (ANTIBODY AND RECEPTOR THERAPEUTICS, published 2014).

T1: FLAG-tagged water-soluble DLK1 (Homo sapiens (Human), UniProt P80370 25-302)
T1 construct: also called FLAG-DLK1; not shown: FLAG tag
T1 sequence: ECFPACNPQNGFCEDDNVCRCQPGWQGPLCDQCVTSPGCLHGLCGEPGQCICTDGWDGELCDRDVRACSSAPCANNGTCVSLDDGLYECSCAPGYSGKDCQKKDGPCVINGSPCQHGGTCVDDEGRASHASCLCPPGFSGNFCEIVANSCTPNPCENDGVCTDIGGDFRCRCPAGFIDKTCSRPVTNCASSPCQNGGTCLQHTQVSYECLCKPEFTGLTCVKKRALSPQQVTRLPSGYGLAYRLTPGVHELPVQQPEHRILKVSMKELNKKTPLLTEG

B1: DLK1A05 (scFv, V domains shown)
VH: QMQLVESGGGLVQPGRSLRLSCAASGFTFDEHAMHWVRQAPGKGLEWVSGINWNSGKTGYADSVKGRFTISRDNGKNSLYLQMNSLRAEDTAVYYCAKSGGYGGNTNWYFDLWGRGTLVTVSS
VL: QFVLTQPPSVSGAPGQNVTISCIGTSSNIGVGYDVHWYQQVPGTAPKLLVYGNNNRPSGVPDRFSGSKSGTSASLAITGLQAEDEADYYCQSYDSRLGVVFGGGTKLTVL
notes: Monoclonal scFv on phage; VH3-9, V1-13
B2: ACVR2B-Fc (Fc fusion, UniProt Q13705 19-137, looked up)
chain: SGRGEAETRECIYYNANWELERTNQSGLERCEGEQDKRLHCYASWRNSSGTIELVKKGCWLDDFNCYDRQECVATEENPQVYFCCCEGNFCNERFTHLPEAGGPEVTYEPPPTAPTLLT
notes: extracellular domain; Prepared by attaching Fc to an extracellular part of ACVR2B; not shown: Fc
B3: DLK1A10 (scFv, V domains shown)
VH: QVQLVESGGGLVQPGRSLRLSCAASGFTFDDYAMHWVRQAPGKGLEWVSGISWNSGSIGYADSVKGRFTISRDNAKNSLYLQMNSLRAEDTAVYYCARGPGLATGKGYADYWGQGTLVTVSS
VL: DIQMTQSPSSVSASVGDRVTITCRASQRISSWLAWYQQKPGRAPKLLIHSASTLHNGVPSRFSGSASGTDFTLTISSLQPEDYAIYYCQQGHSFPYTFGQGTKLEIK
notes: Monoclonal scFv on phage; VH3-9
B4: DLK1B09 (scFv, V domains shown)
VH: QMQLVESGGRLVRPGGSLRLSCAASGFPFTSYAMNWVRQTPGKGLEWVSTITATSGKTYYADSVKGRFTISRDNSRNTLFLQMNSLRAEDTAVYYCVRGESCSGGACSDFDYWGQGALVTVSS
VL: QLVLTQPASVSGSPGQSVTISCTGTSSDIGRYNRVSWYQHHPGKAPKLILNDVTTRPSGFSNRFSGSKSGNTASLTISGLQAEDEADYSCGSYAGSYTYVFGTGTKVTVL
notes: Monoclonal scFv on phage; VH3-23, V1-4; also called B09 (phage clone)
B5: DLK1H12 (scFv, V domains shown)
VH: QVQLVQSGGGLVKPGGSLRLSCAASEFTFSDYYMSWVRQAPGKGLEWLSYISGSGITTYYADSVKGRFTISRDNGKKSLYLEMNSLRAEDTAVYYCARLQGHCSGGACSNWFDAWGQGTLITVSS
VL: DIQMTQSPSSLSASVGDRLTITCRASQSILTYLNWYQQKPGKAPKLLIYAASSLQRGVPSRFSGSGSGTDFTLTISGLQPEDFATYYCQQGYGTPYTFGQGTKVDIK
notes: Monoclonal scFv on phage; VH3-11, O12
B6: DLK1H06 (scFv, V domains shown)
VH: QVQLVQSGGGLIQPGGSLRLSCAASGFTFSLYGMSWVRQAPGKGLEWVSSIPGSGTRTHYADSVKGRFTISRDNSKNTLFLQMNSLRAEDTAVYYCAKSTAYLFDYWGPGTLVTVSS
VL: DIQMTQSPATLSLSPGERATLSCRASQSIRHYLAWYQQKPGQAPRLLIHGASSRATGIPDRFSGSGSGTDFTLTISRLEPEDFAVYYCQHYGSPLHSFGPGTKVEIK
notes: Monoclonal scFv on phage; VH3-23, A27
B7: ACVR1A-Fc (Fc fusion, UniProt Q04771 21-123, looked up)
chain: MEDEKPKVNPKLYMCVCEGLSCGNEDHCEGQQCFSSLSINDGFHVYQKGCFQVYEQGKMTCKTPPSPGQAVECCQGDWCNRNITAQLPTKGKSFPGTQNFHLE
notes: Control protein; not shown: Fc
B8: DLK1A04 (scFv, V domains shown)
VH: QVQLVESGAEVKKPGASVKVSCKASGYTFKDYAIHWVRQAPGQRLEWMGWINPGSGNTKYSHNFEGRVILTRDASANTAYLELPSLRSEDTAVYYCARSVSAYGSNYFDPWGQGTLITVSS
VL: DIQMTQSPSSLSASVGDRVTITCQASQDISNYLNWYQQKPGKAPKLLIYSTSNLQSGVPSRFSGSGSGTDFTLTISSLQPEDFATYYCQQLNSYPLTFGGGTKVDIK
notes: Monoclonal scFv on phage; VH1-3, L8
B9: activin A (ligand, UniProt P08476 311-426, looked up)
chain: GLECDGKVNICCKKQFFVSFKDIGWNDWIIAPSGYHANYCEGECPSHIAGTSGSSLSFHSTVINHYRMRGHSPFANLKSCCVPTKLRPMSMLYYDDGQNIIKKDIQNMIVEECGCS
notes: also called ligand of ACVR2B
B10: DLK1-Fc fusion protein (Fc fusion)
chain: T1 sequence
notes: Water-soluble DLK1 joined to a human antibody Fc region; also called DLK1-Fc-FITC; not shown: human antibody Fc region

Columns and labels:
DLK1-Fc fusion protein [1] = target: B10; experiment: scFv-phage ELISA; OD on DLK1 divided by OD on a-myc
[2] = target: T1, FLAG-tagged water-soluble DLK1; experiment: ELISA
Description: (§1) Binding between ACVR2B and water-soluble DLK1 was confirmed by enzyme immunoassay (ELISA). To this end, 1 μg/ml of FLAG-tagged water-soluble DLK1 was coated on an immunoplate (Nunc) at 4° C. for 16 hours. Here, as a control for detecting non-specific binding, BSA was used. The coated plate was washed with PBST (0.05% Tween 20) three times, and blocked with 5% skim milk PBST. ACVR2B-Fc prepared by attaching Fc to an extracellular part of ACVR2B was subjected to serial dilution, and reacted at room temperature for 1 hour. After the reaction, the cells were washed with PBST (0.05% Tween 20) three times, and […] (1:5000) was incubated for 1 hour to measure a binding degree. After the reaction, the cells were washed with PBST (0.05% Tween 20) three times, a color reaction was performed using TMB (Sigma), and 2.5 M H₂SO₄ was added to stop the reaction. And then optical density was measured at 450 nm.

BSA = BSA (UniProt P02769 25-607); experiment: ELISA: BSA coated as control for non-specific binding, ACVR2B-Fc serially diluted, anti-human IgG-HRP
Description: as §1

activin A = target: B9; experiment: ELISA: activin A coated 50 ng/ml
Description: To examine whether water-soluble DLK1 competitively bind to the ACVR2B receptor with activin A, enzyme immunoassay was performed. 50 ng/ml of activin A was coated and reacted with ACVR2B-Fc and FLAG-DLK1, and then the binding was detected. Here, ACVR2B was fixed to a concentration of 2 nM, FLAG-DLK1 was treated to have a concentration of 1 to 16 nM, and then a degree of competitive binding was measured. As controls, Fc and ACVR1A-Fc not binding to activin A were used.

DLK1-Fc fusion protein [3] = target: B10; experiment: ELISA: activin A coated, DLK1-Fc added
[4] = target: T2, activin receptor type II B (ACVR2B) expressed in cells (UniProt Q13705 19-512, limits assumed); experiment: flow cytometry, 1 ug DLK1-Fc-FITC on 293E cells
T2 construct: whole, on cells; also called ACVR2B-overexpressed cell line
Description: To confirm binding between water-soluble DLK1 and ACVR2B on actual cells, an experiment was performed using flow cytometry. The experiment was performed using CantoII (BD), and an experiment method was summarized as follows. […] The harvested cells were washed with cold DPBS twice, 1 μg of DLK1-Fc-FITC was added to react at 4° C. for 2 hours. DLK1-Fc-FITC used in the reaction was manufactured using a protein FITC labeling kit (Pierce). After the reaction, washing with 1% PBA (1% BSA in DPBS) buffer was performed, a degree of binding was determined by flow cytometry, and the results are shown in FIG. 15. In addition, the cells used above were subjected to western blotting to confirm the expression of ACVR2B (FIG. 14).

Chain of BSA (P02769 25-607 limits assumed): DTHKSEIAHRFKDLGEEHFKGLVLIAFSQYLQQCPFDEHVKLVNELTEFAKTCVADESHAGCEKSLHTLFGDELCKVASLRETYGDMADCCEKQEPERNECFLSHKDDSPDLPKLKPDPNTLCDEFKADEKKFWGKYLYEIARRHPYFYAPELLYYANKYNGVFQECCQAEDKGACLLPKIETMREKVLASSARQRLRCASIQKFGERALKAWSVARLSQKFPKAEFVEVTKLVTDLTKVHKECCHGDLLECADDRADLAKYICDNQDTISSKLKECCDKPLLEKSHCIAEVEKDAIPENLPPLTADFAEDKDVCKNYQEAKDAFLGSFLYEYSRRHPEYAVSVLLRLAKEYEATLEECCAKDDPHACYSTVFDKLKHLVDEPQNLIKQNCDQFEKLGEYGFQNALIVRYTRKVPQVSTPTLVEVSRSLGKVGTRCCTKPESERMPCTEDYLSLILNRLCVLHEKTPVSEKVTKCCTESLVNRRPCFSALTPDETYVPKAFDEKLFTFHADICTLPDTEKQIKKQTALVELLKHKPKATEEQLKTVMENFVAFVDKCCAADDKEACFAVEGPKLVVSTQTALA

## B1
DLK1-Fc fusion protein [1]
  Ratio: 3.81

## B2
[2]
  binding result: binds
BSA
  binding result: no binding

## B3
DLK1-Fc fusion protein [1]
  Ratio: 2.21

## B4
DLK1-Fc fusion protein [1]
  Ratio: 25.3

## B5
DLK1-Fc fusion protein [1]
  Ratio: 4.75

## B6
DLK1-Fc fusion protein [1]
  Ratio: 2.47

## B7
Activin A
  binding result: no binding

## B8
DLK1-Fc fusion protein [1]
  Ratio: 6.15

## B9
DLK1-Fc fusion protein [3]
  binding result: no binding

## B10
[4]
  binding result: binds
